In article PMC4102245, “A molecular model for the role of SYCP3 in meiotic chromosome organisation” (eLife, 2014):
Changes are numbered by the printed parent chain. One block for each molecule: values may come before it.

Legend:
[1] = target: SYCP3_(ΔNt6) (full length human SYCP3 with 69-EVQNML-74 mutated to alanines) (human) (UniProt Q8IZU3); test: SEC-MALS; Superdex 200 Increase 10/300 GL, 20 mM Tris pH 8.0, 500 mM KCl; oligomer size of the eluted peak
[2] = target: SYCP3_(ΔCt6) (human SYCP3 amino acids 1–230) (human) (UniProt Q8IZU3); test: as above
[3] = target: the molecule itself; test: SEC-MALS; Superdex 200 10/300 GL, 100 μl of 2–3 mg/ml, 20 mM Tris pH 8.0, 150 mM KCl, 25°C; oligomer size of the eluted peak
SYCP3 dCt6 WT = target: T1, SYCP3 dCt6 WT (human, UniProt Q8IZU3 1-230); test: fluorescence anisotropy; Kd per SYCP3 tetramer; 20 mM Tris pH 8.0, 150 mM KCl; FA at 25 C with 25 nM DNA (0-20 uM protein); EMSA 5 min at 4 C with 18.7 uM (per bp) DNA (0-40 uM protein), 0.5% agarose, 0.5x TBE; conditions: protein: recombinant; tags: N-terminal His6, TEV-cleaved; chain copies: 4; label: 5' FAM
T1 sequence: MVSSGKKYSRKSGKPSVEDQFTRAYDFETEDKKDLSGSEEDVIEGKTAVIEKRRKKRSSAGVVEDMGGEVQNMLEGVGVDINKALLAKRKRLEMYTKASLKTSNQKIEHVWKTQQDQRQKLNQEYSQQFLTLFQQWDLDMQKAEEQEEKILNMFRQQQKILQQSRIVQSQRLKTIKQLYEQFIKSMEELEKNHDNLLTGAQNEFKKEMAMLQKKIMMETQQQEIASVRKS

[4] = target: the molecule itself; test: SEC-MALS; Superdex 200 Increase 10/300 GL, 20 mM Tris pH 8.0, 500 mM KCl; oligomer size of the eluted peak
[5] = target: the molecule itself; test: SEC-MALS; Superdex 200 10/300 GL, 100 μl of 2–3 mg/ml, 20 mM Tris pH 8.0, 500 mM KCl, 25°C; oligomer size of the eluted peak

stoichiometry N [1]: 4
Molecule: SYCP3_(ΔNt6) (full length human SYCP3 with 69-EVQNML-74 mutated to alanines) (from UniProt Q8IZU3 1-236)

stoichiometry N [2]: 4
Molecule: SYCP3_(ΔCt6) (human SYCP3 amino acids 1–230) (from UniProt Q8IZU3 1-230) (domain or fragment)

B1: SYCP3_(Core) (human SYCP3 amino acids 66–230) (domain or fragment, UniProt Q8IZU3 66-230, looked up)
chain: MGGEVQNMLEGVGVDINKALLAKRKRLEMYTKASLKTSNQKIEHVWKTQQDQRQKLNQEYSQQFLTLFQQWDLDMQKAEEQEEKILNMFRQQQKILQQSRIVQSQRLKTIKQLYEQFIKSMEELEKNHDNLLTGAQNEFKKEMAMLQKKIMMETQQQEIASVRKS
notes: Synaptonemal complex protein 3 (SYCP3), human, Swissprot Q8IZU3, amino acids 66-230; Cloned in pHAT4 with an N-terminal TEV-cleavable His6 tag; homotetramer by SEC-MALS, AUC and crystal structure; also called SYCP_(Core); not shown: His6, N-terminal, cleaved
stoichiometry N [3]: 4

B2: 60 bp FAM-dsDNA (dsDNA)
DNA 1: ATGGTGTGTGTAGGTTAATGTGAGGAGGAGAGGTGAAGAAGGAGGAGAGAAGAAGGAGGC
DNA 2: GCCTCCTTCTTCTCTCCTCCTTCTTCACCTCTCCTCCTCACATTAACCTACACACACCAT
Kd (SYCP3 dCt6 WT): 200 nM

B3: SYCP3_(ΔCt6) ΔBP1 (amino acids 1–230, BP1 52-KRRKKR-57 mutated to alanines) (domain or fragment, human, UniProt Q8IZU3 1-230, looked up)
chain: T1 sequence with K52A, R53A, R54A, K55A, K56A, R57A
notes: Synaptonemal complex protein 3 (SYCP3), human, Swissprot Q8IZU3, amino acids 1-230 with basic patch 1 mutated to alanines; source: E. coli BL21(DE3) Rosetta2, purified as described for wild type SYCP3_(ΔCt6); not shown: His6, N-terminal, cleaved
stoichiometry N [4]: 4

B4: SYCP3_(ΔCt6) ΔBP2 (amino acids 1–230, BP2 88-KRKR-91 mutated to alanines) (domain or fragment, human, UniProt Q8IZU3 1-230, looked up)
chain: T1 sequence with K88A, R89A, K90A, R91A
notes: Synaptonemal complex protein 3 (SYCP3), human, Swissprot Q8IZU3, amino acids 1-230 with basic patch 2 mutated to alanines; source: E. coli BL21(DE3) Rosetta2, purified as described for wild type SYCP3_(ΔCt6); not shown: His6, N-terminal, cleaved
stoichiometry N [4]: 4

B5: SYCP3_(ΔCt6) ΔBP1+2 (amino acids 1–230, BP1 and BP2 mutated to alanines) (domain or fragment, human, UniProt Q8IZU3 1-230, looked up)
chain: T1 sequence with K52A, R53A, R54A, K55A, K56A, R57A, K88A, R89A, K90A, R91A
notes: Synaptonemal complex protein 3 (SYCP3), human, Swissprot Q8IZU3, amino acids 1-230 with both basic patches mutated to alanines; source: E. coli BL21(DE3) Rosetta2, purified as described for wild type SYCP3_(ΔCt6); not shown: His6, N-terminal, cleaved
stoichiometry N [4]: 4

B6: SYCP3FL (full length human SYCP3, amino acids 1–236) (natural protein, UniProt Q8IZU3 1-236, looked up)
chain: MVSSGKKYSRKSGKPSVEDQFTRAYDFETEDKKDLSGSEEDVIEGKTAVIEKRRKKRSSAGVVEDMGGEVQNMLEGVGVDINKALLAKRKRLEMYTKASLKTSNQKIEHVWKTQQDQRQKLNQEYSQQFLTLFQQWDLDMQKAEEQEEKILNMFRQQQKILQQSRIVQSQRLKTIKQLYEQFIKSMEELEKNHDNLLTGAQNEFKKEMAMLQKKIMMETQQQEIASVRKSLQSMLF
notes: Synaptonemal complex protein 3 (SYCP3), human, Swissprot Q8IZU3, amino acids 1-236 (full length); The methods tell no TEV cleavage for SYCP3FL (only Ni-NTA and buffer exchange), so the His6 tag may have been kept; the printed theoretical tetramer size is 111 kDa; also called full length SYCP3; source: E. coli BL21(DE3) Rosetta2, purified (Ni-NTA, buffer exchange into 20 mM Tris pH 8.0, 500 mM KCl)
stoichiometry N [5]: 4
